Measured values from US20170035908A1 (published 2017).

Biological target: T1, PAM4 antigen (pancreatic cancer mucin, CaPan1 human pancreatic tumor)
T1 construct: also called CaPan1 Ag; CaPan1 antigens
Test: ELISA on target mucin antigen (FIG. 9)

EC50: 1.31 nM
B1: humanized PAM4 antibody (antibody, V domains shown)
VH: QVQLQQSGAEVKKPGASVKVSCEASGYTFPSYVLHWVKQAPGQGLEWIGYINPYNDGTQYNEKFKGKATLTRDTSINTAYMELSRLRSDDTAVYYCARGFGGSYGFAYWGQGTLVTVSS
VL: DIQLTQSPSSLSASVGDRVTMTCSASSSVSSSYLYWYQQKPGKAPKLWIYSTSNLASGVPARFSGSGSGTDFTLTISSLQPEDSASYFCHQWNRYPYTFGGGTRLEIKR
notes: also called hPAM4; hPAM4 IgG
